Laboratory results: patent US20210347868A1 (published 2021)
Read-outs that look alike come from different tables or passages of the source. Blank lines part the entries; values can stand above or below the binder they belong to.

What was measured:
full-length synuclein [1] = test: ITC
full-length synuclein [2] = test: ITC; remark: listed apart in the source

Kd (full-length synuclein [1]): 300 nM
B1: Asyn-338.1 (antibody, V domains shown)
VH: QVQLVESGGDIVQPGGSLKLSCAASGFTFKSYWMHWVRQVPGKGLFWVSRINTFGNKTSYADSVRGRFSISRDNTKSILYLQMNSLKAEDTAVYYCARSTLGSFDYWGQGTLVTVSS
VL: AIQLTQSPDSLAVSLGERATINCKASQSLLYSSNNRNYLAWYQQKPGQPPKALIYWASTRESGVPDRFSGSGSGTDFTLTISSLQAEDVAVYYCHQYYTTHSFGQGTKLEIK

Kd (full-length synuclein [1]): 1400 nM
B2: Asyn-336.1 (antibody, V domains shown)
VH: EVQLVQSGGTLVQPGGSLRLSCAASGFTFSTYAISWVRQAPGRGLEWVSFITGDGSRILYADSVRGRFSISRDNSKNTLYLQMNSLRTDDTAMYYCVFNHYWGQGTLVTVSS
VL: B1 VL

Kd (full-length synuclein [2]): 2800 nM
B3: Asyn-323.1 (antibody, V domains shown)
VH: EVQLLESGGGLVQPGGSLKLSCAASGFTFSASAMHWVRQTSDKRLEWVGRIRNKANNYATAYAASVKGRFTISRDDSKNTAYLQMNSLKTEDTAVYYCTRHLSLGGNSVDYWGQGTPVTVSS
VL: DVVMTQSPLSSPVTLGQPASISCRASQSPVHSDGNTYLSWLQQRPGQPPRLLIYTISNRFPGVPDRFSGSGAGTDFTLRISRVEAEDVGVYYCMQGTQFPYTFGQGTKLEIK
